Results reported in paper PMC3570549, “HAMP Domain Conformers That Propagate Opposite Signals in Bacterial Chemoreceptors” (PLoS Biology, 2013).
Substitutions are numbered along the chain they refer to. Names and notes keep the numbering of the source.

Columns and labels:
[1] = biological target: the molecule itself; assay: crystal structure; Aer2 1–172 mutant proteins; L44H by vapor diffusion, 1.5–1.7 M MgSO4, 0.1 M Tris pH 8.5, room temperature, space group P3(2)12; V33G in conditions and space group of the WT; molecular replacement
[2] = biological target: the molecule itself; assay: pulsed dipolar ESR spectroscopy (PDS, double electron electron resonance); inter-subunit distances between MTSSL spin labels on one engineered Cys per subunit; 17.35 GHz; protein 25–50 µM

B1: Aer2 1–172 L44H (domain or fragment)
chain: MGLFNAHAVAQQRADRIATLLQSFADGQLDTAVGEAPAPGYERHYDSLRALQRQLREQRAELQQVESLEAGLAEMSRQHEAGWIDQTIPAERLEGRAARIAKGVNELVAAHIAVKMKVVSVVTAYGQGNFEPLMDRLPGKKAQITEAIDGVRERLRGAAEATSAQLATAAYN
notes: Aer2, soluble receptor of Pseudomonas aeruginosa, residues 1-172 (HAMP1, HAMP2, HAMP3); also called L44H HAMP1 mutant; source: purified as previously described for the WT protein [7], induction temperature reduced to 18°C
B1: binds [1].

B2: H1C AS1 (Aer2 1–172 D26C, MTSSL spin-labeled) (domain or fragment)
chain: B1 chain with D26C, H44L
modifications: MTSSL spin label on the engineered Cys at 26
notes: Aer2, soluble receptor of Pseudomonas aeruginosa, residues 1-172; source: Aer2 1–172 mutant proteins purified as previously described for the WT protein [7]; spin-labeled with MTSSL
B2: binds [2].

B3: Aer2 1–172 V33G (domain or fragment)
chain: B1 chain with V33G, H44L
notes: Aer2, soluble receptor of Pseudomonas aeruginosa, residues 1-172 (HAMP1, HAMP2, HAMP3); also called HR2 mutant of HAMP1; source: purified as previously described for the WT protein [7], induction temperature reduced to 18°C
B3: binds [1].

B4: H2C AS1 (Aer2 1–172 A81C, MTSSL spin-labeled) (domain or fragment)
chain: B1 chain with H44L, A81C
modifications: MTSSL spin label on the engineered Cys at 81
notes: as for B2
B4: binds [2].
